Data taken from US20240392020A1 (JIANGSU HENGRUI PHARMACEUTICALS, published 2024).
Residue numbers refer to the chain shown, from its start.

T1: CEA on MKN45 cells (UniProt P06731 35-685)
T1 construct: whole, on cells
T1 sequence (looked up): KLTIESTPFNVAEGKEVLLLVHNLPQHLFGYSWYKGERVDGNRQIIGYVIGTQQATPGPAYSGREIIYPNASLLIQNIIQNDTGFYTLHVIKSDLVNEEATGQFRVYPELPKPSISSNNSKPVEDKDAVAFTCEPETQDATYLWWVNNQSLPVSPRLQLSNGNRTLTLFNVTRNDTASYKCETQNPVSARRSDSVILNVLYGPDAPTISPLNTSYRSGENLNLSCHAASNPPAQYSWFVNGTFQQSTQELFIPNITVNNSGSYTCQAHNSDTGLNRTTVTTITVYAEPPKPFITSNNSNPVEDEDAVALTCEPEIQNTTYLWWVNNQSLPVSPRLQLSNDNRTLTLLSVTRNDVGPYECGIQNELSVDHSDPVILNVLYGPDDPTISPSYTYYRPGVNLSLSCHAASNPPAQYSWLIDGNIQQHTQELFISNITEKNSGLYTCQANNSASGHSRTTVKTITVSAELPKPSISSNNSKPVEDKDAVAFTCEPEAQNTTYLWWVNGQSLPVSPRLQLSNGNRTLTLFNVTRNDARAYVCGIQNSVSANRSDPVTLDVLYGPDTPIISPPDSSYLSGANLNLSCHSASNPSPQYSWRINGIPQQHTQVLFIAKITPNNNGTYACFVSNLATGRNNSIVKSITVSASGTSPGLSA

B1: R5 (antibody)
heavy: not shown
light: DIQMTQSPSSLSASVGDRVTITCLASEGISSYLAWYQQKPGKAPKLLIYGANSLQTGVPSRFSGSGSATDYTLTISSLQPEDFATYYCQQSYKFPNTFGQGTKVEVKSGAPRFLTRPKAFVVSVGKDATLSCQIVGNPTPQVSWEKDQQPVAAGARFRLAQDGDLYRLTILDLALGDSGQYVCRARNAIGEAFAAVGLQVDAEA
B2: H3 (antibody)
heavy: not shown
light: DIQMTQSPSSVSASVGDRVTITCRASQDIANYLSWYQQKPGKSPKLLIYGTSNLEVGVPSRFSGSRSGTDFTLTISSLQPEDFATYYCLQDKEFPRTFGGGTKVEIKSGAPRFLTRPKAFVVSVGKDATLSCQIVGNPTPQVSWEKDQQPVAAGARFRLAQDGDLYRLTILDLALGDSGQYVCRARNAIGEAFAAVGLQVDAEA
B3: H4 (antibody)
heavy: not shown
light: DIQMTQSPSSVSASVGDRVTITCRASQDIANYLSWYQQKPGKSPKLLIYGTSNLEVGVPSRFSGSRSGTDFTLTISSLQPEDFATYYCLQDKEFPRTFGGGTKVEIKQGSPPCFLRFPRPVRVVSGAEAELKCVVLGEPPPVVVWEKGGQQLAASERLSFPADGAEHGLLLTAALPTDAGVYVCRARNAAGEAYAAAAVTVLEPP
B4: R0 (antibody, human IgG1, kappa)
heavy: not shown
light: DIQMTQSPSSLSASVGDRVTITCLASEGISSYLAWYQQKPGKAPKLLIYGANSLQTGVPSRFSGSGSATDYTLTISSLQPEDFATYYCQQSYKFPNTFGQGTKVEVKRTVAAPSVFIFPPSDEQLKSGTASVVCLLNNFYPREAKVQWKVDNALQSGNSQESVTEQDSKDSTYSLSSTLTLSKADYEKHKVYACEVTHQGLSSPVTKSFNRGEC
B5: R1 (antibody)
heavy: not shown
light: DIQMTQSPSSLSASVGDRVTITCLASEGISSYLAWYQQKPGKAPKLLIYGANSLQTGVPSRFSGSGSATDYTLTISSLQPEDFATYYCQQSYKFPNTFGQGTKVEVKGILQPDPPANITVTAVARNPRWLSVTWQDPHSWNSSFYRLRFELRYRAERSKTFTTWMVKDLQHHCVIHDAWSGLRHVVQLRAQEEFGQGEWSEWSPEAMGTPW
B6: R2 (antibody)
heavy: not shown
light: DIQMTQSPSSLSASVGDRVTITCLASEGISSYLAWYQQKPGKAPKLLIYGANSLQTGVPSRFSGSGSATDYTLTISSLQPEDFATYYCQQSYKFPNTFGQGTKVEVKFDPVYKVKPNPPHNLSVINSEELSSILKLTWTNPSIKSVIILKYNIQYRTKDASTWSQIPPEDTASTRSSFTVQDLKPFTEYVFRIRCMKEDGKGYWSDWSEEASGIT
B7: R3 (antibody)
heavy: not shown
light: DIQMTQSPSSLSASVGDRVTITCLASEGISSYLAWYQQKPGKAPKLLIYGANSLQTGVPSRFSGSGSATDYTLTISSLQPEDFATYYCQQSYKFPNTFGQGTKVEVKGIPPKIEALPSDISIDEGKVLTVACAFTGEPTPEVTWSCGGRKIHSQEQGRFHIENTDDLTTLIIMDVQKQDGGLYTLSLGNEFGSDSATVNIHIRSI
B8: R4 (antibody)
heavy: not shown
light: B7 light
B9: R6 (antibody)
heavy: not shown
light: DIQMTQSPSSLSASVGDRVTITCLASEGISSYLAWYQQKPGKAPKLLIYGANSLQTGVPSRFSGSGSATDYTLTISSLQPEDFATYYCQQSYKFPNTFGQGTKVEVKQGSPPCFLRFPRPVRVVSGAEAELKCVVLGEPPPVVVWEKGGQQLAASERLSFPADGAEHGLLLTAALPTDAGVYVCRARNAAGEAYAAAAVTVLEPP
B10: R10 (antibody)
heavy: not shown
light: B1 light with C132S, C183S, A195C
B11: R13 (antibody)
heavy: not shown
light: B1 light with C132S, C183S, A195C
B12: R14 (antibody)
heavy: not shown
light: B1 light with L114K, C132S, T169K, C183S, A195C
B13: R15 (antibody)
heavy: not shown
light: B1 light with L114K, C132S, T169H, C183S, A195C
B14: R16 (antibody)
heavy: not shown
light: B1 light with K118L, C132S, T169K, C183S, A195C
B15: R17 (antibody)
heavy: not shown
light: B1 light with K118L, C132S, T169H, C183S, A195C
B16: R19 (antibody)
heavy: not shown
light: DIQMTQSPSSLSASVGDRVTITCLASEGISSYLAWYQQKPGKAPKLLIYGANSLQTGVPSRFSGSGSATDYTLTISSLQPEDFATYYCQQSYKFPNTFGQGTKVEVKDQPQFSGAPRFKTRPKAFVVSVGKDATLSSQIVGNPTPQVSWEKDQQPVAAGARFRLAQDGDLYRLKILDLALGDSGQYVSRARNAIGEAFACVGLQVDAEA
B17: R18 (antibody)
heavy: not shown
light: B16 light with K119L, K174T
B18: R20 (antibody)
heavy: not shown
light: B16 light with K174H
B19: R21 (antibody)
heavy: not shown
light: B16 light with K119R
B20: R22 (antibody)
heavy: not shown
light: B16 light with K119R, K174H
B21: B7 (antibody)
heavy: not shown
light: SSELTQDPAVSVALGQTVRVTCQGDSLRSYYASWYQQKPGQAPVLVIYGKNNRPSGIPDRFSGSSSGNTASLTITGAQAEDEADYYCSSRDSSGNHWVFGGGTELTVLSGAPRFLTRPLAFVVSVGKDATLSSQIVGNPTPQVSWEKDQLPVTAGARFRLAQDGDLYRLKILDLTLSDSGQYVSRARNAIGEAFACVGLEVGAEA
B22: B1 (antibody)
heavy: not shown
light: B21 light with L150Q, T153A, T175A, S177G, E200Q, G202D
B23: B5 (antibody)
heavy: not shown
light: B21 light
B24: B6 (antibody)
heavy: not shown
light: B21 light
B25: B8 (antibody)
heavy: not shown
light: B21 light with A120S, F121Y, T130S, T175Q
B26: B2 (antibody)
heavy: not shown
light: SSELTQDPAVSVALGQTVRVTCQGDSLRSYYASWYQQKPGQAPVLVIYGKNNRPSGIPDRFSGSSSGNTASLTITGAQAEDEADYYCSSRDSSGNHWVFGGGTELTVLSGAPRFLTRPKSYTVSVGKDASLSSQIVGNPTPQVSWEKDQQPVAAGARFRLAQDGDLYRLKILDLALGDSGQYVSRARNAIGEAFACVGLQVDAEA
B27: B3 (antibody)
heavy: not shown
light: SSELTQDPAVSVALGQTVRVTCQGDSLRSYYASWYQQKPGQAPVLVIYGKNNRPSGIPDRFSGSSSGNTASLTITGAQAEDEADYYCSSRDSSGNHWVFGGGTELTVLSEAPRFLTRPLAFVVSEGKDATLSSQIVGDPPPEVTWEKDQQPITAGARFRLAQDGDVYRLEILDLQLSDSGQYVSRARNAIGEAFACVGLQVDAEG
B28: B4 (antibody)
heavy: not shown
light: B21 light with Q149K, L150Q, T175Q, V197L, E200Q, G202D
B29: N0 (antibody, human IgG1, kappa)
heavy: not shown
light: EIVLTQSPGTLSLSPGERATLSCRASQNINNRFLAWYQQRPGQAPRLLIYAASSRATGVPDRFSGSGSGTDFTLTISRLEAEDFAMYHCQQYGSFPRTFGQGTMVDIKRTVAAPSVFIFPPSDEQLKSGTASVVCLLNNFYPREAKVQWKVDNALQSGNSQESVTEQDSKDSTYSLSSTLTLSKADYEKHKVYACEVTHQGLSSPVTKSFNRGEC

Target: T2, hIL-5 (human, UniProt P05113 20-134)
T2 construct: bought
Assay: ELISA
Protocol: (§1) For an antibody targeting a soluble protein, the binding activity of the antibody against the soluble protein was detected by ELISA. […] After the blocking was completed, the blocking solution was discarded; and the plate was washed 3 times with a PBST buffer (pH 7.4, PBS containing 0.1% tween-20). 100 μL of the antibody solution diluted in a gradient was added to each well, and the mixture was incubated at 37° C. for 1 h. After the incubation was completed, the plate was washed 3 times with PBST. […] The plate was washed 3 times with PBST. […] The reaction was stopped by adding 50 μL of 1 M H₂SO₄ to each well. The absorbance values at 450 nm were read on a microplate reader, the binding curves of the antibodies to an antigen were fitted with software, and the EC₅₀ values were calculated.

| Binder | EC50 |
| --- | --- |
| B1 | 1.59 nM |
| B2 | 2.75 nM |
| B3 | 2.7 nM |
| B4 | 1.75 nM |
| B5 | 24.4 nM |
| B6 | 18.4 nM |
| B7 | 1.58 nM |
| B8 | 1.67 nM |
| B9 | 2.02 nM |

Target: T2, hIL-5
Assay: ELISA
Remark: another data set of the same source
Protocol: as §1

| Binder | EC50 |
| --- | --- |
| B1 | 4.13 nM |
| B10 | 3.2 nM |
| B2 | 3.24 nM |
| B3 | 3.28 nM |

Target: T2, hIL-5
Assay: ELISA
Remark: another data set of the same source
Protocol: as §1

| Binder | EC50 |
| --- | --- |
| B10 | 0.37 nM |
| B11 | 0.4 nM |
| B12 | 0.2 nM |
| B13 | 0.3 nM |
| B14 | 0.33 nM |
| B15 | 0.4 nM |
| B16 | 0.36 nM |
| B17 | 0.44 nM |
| B18 | 0.39 nM |
| B19 | 0.37 nM |
| B20 | 0.39 nM |

Target: T3, hBAFF (human, UniProt Q9Y275 134-285)
T3 construct: bought
Assay: ELISA
Protocol: as §1

| Binder | EC50 |
| --- | --- |
| B21 | 0.35 nM |
| B22 | 0.28 nM |
| B23 | 0.29 nM |
| B24 | 0.19 nM |
| B25 | 0.16 nM |
| B26 | 0.19 nM |
| B27 | 0.5 nM |
| B28 | 0.25 nM |

Target: T1, CEA on MKN45 cells
Assay: FACS, MKN45 cells

| Binder | EC50 |
| --- | --- |
| B29 | 0.82 nM |
